Assay results as given in patent publication US20240409624A1.

Legend:
[1] = target: 0N4 R tau K298 mutated to alanine (human) (UniProt P10636); experiment: flow cytometry on fixed, permeabilised Expi293 cells expressing the mutant, 10 µg/ml VR7082
[2] = target: 0N4 R tau V300 mutated to alanine (human) (UniProt P10636); experiment: as above
Sequence of 0N4 R tau V300 mutated to alanine (human) (P10636 other isoform, or with tags, fused parts or gaps, change not shown): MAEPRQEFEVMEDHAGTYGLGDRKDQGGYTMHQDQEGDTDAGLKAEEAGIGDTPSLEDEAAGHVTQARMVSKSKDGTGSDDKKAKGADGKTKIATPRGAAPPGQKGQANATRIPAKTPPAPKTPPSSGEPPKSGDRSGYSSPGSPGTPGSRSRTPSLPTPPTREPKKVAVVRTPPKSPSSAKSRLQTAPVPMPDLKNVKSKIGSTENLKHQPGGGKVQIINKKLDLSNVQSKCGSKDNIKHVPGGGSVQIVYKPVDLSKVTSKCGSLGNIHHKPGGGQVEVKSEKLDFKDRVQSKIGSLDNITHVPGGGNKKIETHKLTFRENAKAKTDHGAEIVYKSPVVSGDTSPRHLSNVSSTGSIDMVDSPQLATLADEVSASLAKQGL

Sequence of 0N4 R tau K298 mutated to alanine (human) (P10636 other isoform, or with tags, fused parts or gaps, change not shown): as above

B1: VR7082 rabbit IgG (antibody, V domains shown)
VH: QSVEESGGRLVTPGTPLTLTCTVSGIDLSNYAMIWVRQAPGEGLEYIGIISSTGNTFYATWAKGRFTISKTSTTVDLKITSPTAEDTATYFCARDTNSDSHYGWEAFNIWGPGTLVTVSS
VL: AVVLTQTPASVEAAVGGTVSINCQASEDIESYLAWYQQKPGQRPKLLIYRASTLASGVSSRFKGSGSGTEYTLTISGVECADAATYYCQEGYSIHVDNVFGGGTEVVVK
A decrease of binding relative to 0N4 R tau [1] of 50% and a decrease of binding relative to 0N4 R tau [2] of 50% were found for B1 in this work.
